*1 amine or outer side, *2 acyl side, *3 side chain or, on linkers, in order; H or OH if unused. Where a SMILES comes first, the peptide text is derived from it. [ ]: non-standard residue; d: D form. The star is where a group is joined. Dolaproine = CO[C@@H]([C@@H]1CCCN1)[C@@H](C)C(=O)O; Dil = CC[C@H](C)[C@H](NC)[C@@H](CC(=O)O)OC; PABC = O=C(OCc1ccc(N[*:1])cc1)[*:2]; Doe = c1ccc(C[C@H](N*)c2nccs2)cc1; Cit = NC(=O)NCCC[C@H](N)C(=O)O; Aib = CC(C)(N)C(=O)O; X2 = CC1(C(=O)*)COC1; Moc = COC(=O)*
Assay: In Vitro Stability Assay—Mouse Plasma
Type: in vitro ADME
Settings: attachment position L11B; for Conjugate stability (%): % DAR remaining after plasma 3 or 4.5 days; for DAR: before plasma incubation
Procedure: 100-200 ug of ADC were incubated in mouse plasma (provided by Bioreclamation) supplemented with 1×PBS to the final ADC concentration of 0.125 mg/mL. Following incubation for 3-7 days, samples were diluted with an equal volume of 1×PBS, and ADCs were isolated using Trop2 antigen coupled to CNBr-activated Sepharose (GE Healthcare) using standard protocols. Drug-antibody ratios were assessed before and after in vitro exposure using HIC methods and mass spectrometry.
DAR values for conjugates purified after plasma incubation were compared to DAR values prior to plasma treatment.

| Compound | DAR after plasma incubation for 3 to 4.5 days | Conjugate stability (%) | DAR |
| --- | --- | --- | --- |
| CC[C@H](C)[C@@H]([C@@H](CC(=O)N1CCC[C@H]1[C@H](OC)[C@@H](C)C(=O)N[C@@H](Cc1ccccc1)c1nccs1)OC)N(C)C(=O)[C@@H](NC(=O)C(C)(C)NC(=O)OCc1ccc(NC(=O)[C@H](CCCNC(N)=O)NC(=O)[C@@H](NC(=O)[C@H](CCCCN)NC(=O)CN)C(C)C)cc1)C(C)C [Example 29, glycyl-L-lysylvalyl-N-{4-[(8S,11S,12R)-11-[(2S)-butan-2-yl]-12-(2-{(2S)-2-[(1R,2R)-1-methoxy-2-methyl-3-oxo-3-{[(1S)-2-phenyl-1-(1,3-thiazol-2-yl)ethyl]amino}propyl]pyrrolidin-1-yl}-2-oxoethyl)-5,5,10-trimethyl-3,6,9-trioxo-8-(propan-2-yl)-2,13-dioxa-4,7,10-triazatetradec-1-yl]phenyl}-N˜5˜-carbamoyl-L-ornithinamide] (H-GKV[Cit][PABC][Aib]V[Dil][Dolaproine]-Doe) | 1.46 | 81% | 1.80 |
| CC[C@H](C)[C@@H]([C@@H](CC(=O)N1CCC[C@H]1[C@H](OC)[C@@H](C)C(=O)N[C@@H](Cc1ccccc1)c1nccs1)OC)N(C)C(=O)[C@@H](NC(=O)C(C)(C)NC(=O)OCc1ccc(NC(=O)[C@H](CCCNC(N)=O)NC(=O)[C@@H](NC(=O)[C@H](CCCCN)NC(=O)C2(C)COC2)C(C)C)cc1)C(C)C [Example 30, N˜2˜-[(3-methyloxetan-3-yl)carbonyl]-L-lysyl-L-valyl-N-{4-[(8S,11S,12R)-11-[(2S)-butan-2-yl]-12-(2-{(2S)-2-[(1R,2R)-1-methoxy-2-methyl-3-oxo-3-{[(1S)-2-phenyl-1-(1,3-thiazol-2-yl)ethyl]amino}propyl]pyrrolidin-1-yl}-2-oxoethyl)-5,5,10-trimethyl-3,6,9-trioxo-8-(propan-2-yl)-2,13-dioxa-4,7,10-triazatetradec-1-yl]phenyl}-N˜5˜-carbamoyl-L-ornithinamide] (X2-KV[Cit][PABC][Aib]V[Dil][Dolaproine]-Doe) | 0.06 | 5% | 1.27 |
| CC[C@H](C)[C@@H]([C@@H](CC(=O)N1CCC[C@H]1[C@H](OC)[C@@H](C)C(=O)N[C@@H](Cc1ccccc1)c1nccs1)OC)N(C)C(=O)[C@@H](NC(=O)C(C)(C)NC(=O)OCc1ccc(NC(=O)[C@H](CCCNC(N)=O)NC(=O)[C@@H](NC(=O)[C@H](CCCCN)NC(=O)C(C)(C)N)C(C)C)cc1)C(C)C [Example 31, 2-methylalanyl-L-lysylvalyl-N-{4-[(8S,11S,12R)-11-[(2S)-butan-2-yl]-12-(2-{(2S)-2-[(1R,2R)-1-methoxy-2-methyl-3-oxo-3-{[(1S)-2-phenyl-1-(1,3-thiazol-2-yl)ethyl]amino}propyl]pyrrolidin-1-yl}-2-oxoethyl)-5,5,10-trimethyl-3,6,9-trioxo-8-(propan-2-yl)-2,13-dioxa-4,7,10-triazatetradec-1-yl]phenyl}-N˜5˜-carbamoyl-L-ornithinamide] (H-[Aib]KV[Cit][PABC][Aib]V[Dil][Dolaproine]-Doe) | 0.03 | 2% | 1.77 |
| CC[C@H](C)[C@@H]([C@@H](CC(=O)N1CCC[C@H]1[C@H](OC)[C@@H](C)C(=O)N[C@@H](Cc1ccccc1)c1nccs1)OC)N(C)C(=O)[C@@H](NC(=O)C(C)(C)NC(=O)OCc1ccc(NC(=O)[C@H](CCCNC(N)=O)NC(=O)[C@@H](NC(=O)[C@H](CCCCN)NC(=O)OC)C(C)C)cc1)C(C)C [Example 32, N˜2˜-(methoxycarbonyl)-L-lysylvalyl-N-{4-[(8S,11S,12R)-11-[(2S)-butan-2-yl]-12-(2-{(2S)-2-[(1R,2R)-1-methoxy-2-methyl-3-oxo-3-{[(1S)-2-phenyl-1-(1,3-thiazol-2-yl)ethyl]amino}propyl]pyrrolidin-1-yl}-2-oxoethyl)-5,5,10-trimethyl-3,6,9-trioxo-8-(propan-2-yl)-2,13-dioxa-4,7,10-triazatetradec-1-yl]phenyl}-N˜5˜-carbamoyl-L-ornithinamide] (Moc-KV[Cit][PABC][Aib]V[Dil][Dolaproine]-Doe) | 0.08 | 5% | 1.53 |
| CC[C@H](C)[C@@H]([C@@H](CC(=O)N1CCC[C@H]1[C@H](OC)[C@@H](C)C(=O)N[C@@H](Cc1ccccc1)c1nccs1)OC)N(C)C(=O)[C@@H](NC(=O)C(C)(C)NC(=O)OCc1ccc(NC(=O)[C@H](CCCNC(N)=O)NC(=O)[C@@H](NC(=O)[C@@H](N)CCCCN)C(C)C)cc1)C(C)C [Example 33, L-lysylvalyl-N-{4-[(8S,11S,12R)-11-[(2S)-butan-2-yl]-12-(2-{(2S)-2-[(1R,2R)-1-methoxy-2-methyl-3-oxo-3-{[(1S)-2-phenyl-1-(1,3-thiazol-2-yl)ethyl]amino}propyl]pyrrolidin-1-yl}-2-oxoethyl)-5,5,10-trimethyl-3,6,9-trioxo-8-(propan-2-yl)-2,13-dioxa-4,7,10-triazatetradec-1-yl]phenyl}-N˜5˜-carbamoyl-L-ornithinamide] (H-KV[Cit][PABC][Aib]V[Dil][Dolaproine]-Doe) | 0.52 | 34% | 1.53 |
| CC[C@H](C)[C@@H]([C@@H](CC(=O)N1CCC[C@H]1[C@H](OC)[C@@H](C)C(=O)N[C@@H](Cc1ccccc1)c1nccs1)OC)N(C)C(=O)[C@@H](NC(=O)C(C)(C)NC(=O)OCc1ccc(NC(=O)[C@H](CCCNC(N)=O)NC(=O)[C@@H](NC(=O)[C@H](CCCCN)NC(=O)[C@H](C)N)C(C)C)cc1)C(C)C [Example 34, L-alanyl-L-lysylvalyl-N-{4-[(8S,11S,12R)-11-[(2S)-butan-2-yl]-12-(2-{(2S)-2-[(1R,2R)-1-methoxy-2-methyl-3-oxo-3-{[(1S)-2-phenyl-1-(1,3-thiazol-2-yl)ethyl]amino}propyl]pyrrolidin-1-yl}-2-oxoethyl)-5,5,10-trimethyl-3,6,9-trioxo-8-(propan-2-yl)-2,13-dioxa-4,7,10-triazatetradec-1-yl]phenyl}-N˜5˜-carbamoyl-L-ornithinamide] (H-AKV[Cit][PABC][Aib]V[Dil][Dolaproine]-Doe) | 0.86 | 50% | 1.72 |
| CC[C@H](C)[C@@H]([C@@H](CC(=O)N1CCC[C@H]1[C@H](OC)[C@@H](C)C(=O)N[C@@H](Cc1ccccc1)c1nccs1)OC)N(C)C(=O)[C@@H](NC(=O)C(C)(C)NC(=O)OCc1ccc(NC(=O)[C@H](CCCNC(N)=O)NC(=O)[C@@H](NC(=O)[C@H](CCCCN)NC(=O)[C@@H](C)N)C(C)C)cc1)C(C)C [Example 35, D-alanyl-L-lysylvalyl-N-{4-[(8S,11S,12R)-11-[(2S)-butan-2-yl]-12-(2-{(2S)-2-[(1R,2R)-1-methoxy-2-methyl-3-oxo-3-{[(1S)-2-phenyl-1-(1,3-thiazol-2-yl)ethyl]amino}propyl]pyrrolidin-1-yl}-2-oxoethyl)-5,5,10-trimethyl-3,6,9-trioxo-8-(propan-2-yl)-2,13-dioxa-4,7,10-triazatetradec-1-yl]phenyl}-N˜5˜-carbamoyl-L-ornithinamide] (H-[dA]KV[Cit][PABC][Aib]V[Dil][Dolaproine]-Doe) | 1.07 | 58% | 1.82 |
| CC[C@H](C)[C@@H]([C@@H](CC(=O)N1CCC[C@H]1[C@H](OC)[C@@H](C)C(=O)N[C@@H](Cc1ccccc1)c1nccs1)OC)N(C)C(=O)[C@@H](NC(=O)C(C)(C)NC(=O)OCc1ccc(NC(=O)[C@H](CCCNC(N)=O)NC(=O)[C@@H](NC(=O)[C@H](CCCCN)NC(=O)CNC(C)=O)C(C)C)cc1)C(C)C [Example 37, N-acetylglycyl-L-lysyl-L-valyl-N-{4-[(8S,11S,12R)-11-[(2S)-butan-2-yl]-12-(2-{(2S)-2-[(1R,2R)-1-methoxy-2-methyl-3-oxo-3-{[(1S)-2-phenyl-1-(1,3-thiazol-2-yl)ethyl]amino}propyl]pyrrolidin-1-yl}-2-oxoethyl)-5,5,10-trimethyl-3,6,9-trioxo-8-(propan-2-yl)-2,13-dioxa-4,7,10-triazatetradec-1-yl]phenyl}-N˜5˜-carbamoyl-L-ornithinamide] (Ac-GKV[Cit][PABC][Aib]V[Dil][Dolaproine]-Doe) | 0.85 | 44% | 1.94 |
| CC[C@H](C)[C@@H]([C@@H](CC(=O)N1CCC[C@H]1[C@H](OC)[C@@H](C)C(=O)N[C@@H](Cc1ccccc1)c1nccs1)OC)N(C)C(=O)[C@@H](NC(=O)C(C)(C)NC(=O)OCc1ccc(NC(=O)[C@H](CCCNC(N)=O)NC(=O)[C@@H](NC(=O)[C@H](CCCCN)NC(=O)[C@@H](N)CO)C(C)C)cc1)C(C)C [Example 38, L-seryl-L-lysylvalyl-N-{4-[(8S,11S,12R)-11-[(2S)-butan-2-yl]-12-(2-{(2S)-2-[(1R,2R)-1-methoxy-2-methyl-3-oxo-3-{[(1S)-2-phenyl-1-(1,3-thiazol-2-yl)ethyl]amino}propyl]pyrrolidin-1-yl}-2-oxoethyl)-5,5,10-trimethyl-3,6,9-trioxo-8-(propan-2-yl)-2,13-dioxa-4,7,10-triazatetradec-1-yl]phenyl}-N˜5˜-carbamoyl-L-ornithinamide] (H-SKV[Cit][PABC][Aib]V[Dil][Dolaproine]-Doe) | 1.32 | 90% | 1.47 |
| CC[C@H](C)[C@@H]([C@@H](CC(=O)N1CCC[C@H]1[C@H](OC)[C@@H](C)C(=O)N[C@@H](Cc1ccccc1)c1nccs1)OC)N(C)C(=O)[C@@H](NC(=O)C(C)(C)NC(=O)OCc1ccc(NC(=O)[C@H](CCCNC(N)=O)NC(=O)[C@@H](NC(=O)[C@H](CCCCN)NC(=O)[C@H](N)CO)C(C)C)cc1)C(C)C [Example 39, D-seryl-L-lysylvalyl-N-{4-[(8S,11S,12R)-11-[(2S)-butan-2-yl]-12-(2-{(2S)-2-[(1R,2R)-1-methoxy-2-methyl-3-oxo-3-{[(1S)-2-phenyl-1-(1,3-thiazol-2-yl)ethyl]amino}propyl]pyrrolidin-1-yl}-2-oxoethyl)-5,5,10-trimethyl-3,6,9-trioxo-8-(propan-2-yl)-2,13-dioxa-4,7,10-triazatetradec-1-yl]phenyl}-N˜5˜-carbamoyl-L-ornithinamide] (H-[dS]KV[Cit][PABC][Aib]V[Dil][Dolaproine]-Doe) | 1.53 | 82% | 1.87 |

Reference: US10967068B2, “Stability-modulating linkers for use with antibody drug conjugates” (priority 2014, dated 2021)
